The source of these data is patent WO1999010379A1 (dated 1999).

Assay [1] deals with T1, monoclonal antibody SM3 (secreted by the hybridoma HSM3, ECACC accession no. 87010701).
T1 construct: The general ELISA method detects it with goat anti-mouse (Fc specific) conjugate; also called SM3 antibody
The assay can be described thus: inhibition ELISA of SM3 (1 ug/ml) binding to the fusion protein with seven MUC1 tandem repeats.

For assay [2], the target named is T1, monoclonal antibody SM3 (secreted by …). Description: inhibition ELISA: SM3 at 1 ug/ml incubated with increasing peptide, binding to the fusion protein with seven MUC1 tandem repeats. In general terms: In an ELISA, binding on a coated surface is turned into a signal by an enzyme label.

In general, IC50 refers to the midpoint of a concentration-inhibition curve.

T1 sequence (VH, as listed by the source limits assumed, chain 1 of 2): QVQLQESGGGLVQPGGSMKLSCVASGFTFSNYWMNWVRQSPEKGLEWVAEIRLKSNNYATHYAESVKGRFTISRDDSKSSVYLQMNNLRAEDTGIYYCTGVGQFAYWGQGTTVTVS
T1 sequence (VL, as listed by the source limits assumed, chain 2 of 2): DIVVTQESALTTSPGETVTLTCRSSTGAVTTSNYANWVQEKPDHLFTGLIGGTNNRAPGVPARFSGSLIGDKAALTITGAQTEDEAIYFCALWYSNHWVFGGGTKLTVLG

B1: control peptide of the same composition but different sequence (Ala-Arg-Pro-Thr-Gly-Thr-Ser-Asp-Pro-Thr-Pro-Ala-Ser) (peptide)
peptide: ARPTGTSDPTPAS
Regarding B1, in assay [1], the binding result was “no binding (tested: approximately 30μg/ml)”.

B2: MUC1 peptide Thr-Ser-Ala-Pro-Asp-Thr-Arg-Pro-Ala-Pro-Gly-Ser-Thr ("the crystal peptide") (peptide)
peptide: TSAPDTRPAPGST
notes: Non-glycosylated peptide; also called MUCl peptide; MUCl peptide antigen
Turning to B2, in assay [2], the “Apparent Ka” value was ~24 µM and the IC50 is ~30 µg/mL.
